Data published in US20250277051A1 (HANGZHOU UNOGEN BIOTECH, published 2025).
Substitutions are numbered along the chain they refer to.

What was measured:
[1] = biological target: T1, recombinant human CD38 protein (human, UniProt P28907 43-300, biotin labeled); assay: ELISA on recombinant human CD38, OD 450 nm
T1 construct: Biotin labeled and captured on streptavidin coated plates; also called human CD38 target
Experimental: (§1) Biotin labeled recombinant CD38 protein was bound to streptavidin coated ELISA plates to capture the antigen on the solid phase. Varying concentrations of the tested anti-CD38 antibodies were then added to the coated plates and the bound antibodies were detected and quantified using standard ELISA protocols. […] Biotin labeled cynomolgus recombinant CD38 protein was bound to a streptavidin coated ELISA plate to capture the antigen on the solid phase. Varying concentrations of the tested anti-CD38 antibodies were then added to the coated plates and the bound antibodies were detected and quantified using standard ELISA protocols.

[2] = biological target: T2, recombinant mouse CD38 protein (mouse, UniProt P56528 45-304, limits assumed, biotin labeled); assay: ELISA, biotinylated recombinant mouse CD38 captured on a streptavidin plate, OD 450 nm
T2 construct: also called mouse recombinant CD38 protein; mouse CD38 antigen
T2 sequence (looked up): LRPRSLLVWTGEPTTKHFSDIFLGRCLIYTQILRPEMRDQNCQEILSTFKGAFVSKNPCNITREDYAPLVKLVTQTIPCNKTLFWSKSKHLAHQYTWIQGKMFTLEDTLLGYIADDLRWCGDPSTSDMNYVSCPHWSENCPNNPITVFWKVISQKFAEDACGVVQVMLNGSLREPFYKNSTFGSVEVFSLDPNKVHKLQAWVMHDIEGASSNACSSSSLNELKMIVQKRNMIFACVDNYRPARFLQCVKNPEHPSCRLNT
Experimental: as §1

[3] = biological target: T3, recombinant cynomolgus monkey CD38 protein (cynomolgus monkey, UniProt Q5VAN0 44-301, biotin labeled); assay: ELISA, biotinylated recombinant cynomolgus monkey CD38 captured on a streptavidin plate, OD 450 nm
T3 construct: Biotin labeled and captured on a streptavidin coated plate; also called cynomolgus monkey CD38 antigen; cynomolgus recombinant CD38 protein
Experimental: as §1

[4] = biological target: T1, recombinant human CD38 protein; assay: ELISA, biotinylated recombinant human CD38 captured on a streptavidin plate, OD 450 nm
[5] = biological target: T1, recombinant human CD38 protein; assay: ELISA on recombinant human CD38, OD 450 nm; remark: listed apart in the source
Experimental: as §1

[6] = biological target: T4, recombinant cynomolgus monkey CD3 delta and epsilon domain protein (cynomolgus monkey, UniProt Q95LI5 22-117; Q95LI8 22-105, biotin labeled); assay: ELISA, recombinant antigen on plate
T4 construct: Biotin labeled and captured on a streptavidin coated ELISA plate; also called cynomolgus monkey recombinant CD3 protein, consisting of CD3 epsilon and CD3 delta chains
Experimental: (§2) The y axis is the binding response expressed in optical density at 450 nm absorbance units. The x axis is the concentration of the molecules tested.
(§3) Biotin labeled cynomolgus monkey recombinant CD3 protein, consisting of CD3 epsilon and CD3 delta chains, was bound to a streptavidin coated ELISA plate to capture the antigen on the solid phase. Varying concentrations of the tested anti-CD3 antibody was then added to the coated plates and the bound antibodies were detected and quantified using standard ELISA protocols.

[7] = biological target: T4, recombinant cynomolgus monkey CD3 delta …; assay: ELISA, biotinylated recombinant cynomolgus monkey CD3 epsilon/delta captured on a streptavidin plate, OD 450 nm
Experimental: as §2, §3

[8] = biological target: T5, recombinant human CD3 delta and epsilon domain protein (human, UniProt P07766 23-126; P04234 22-105, biotin labeled); assay: ELISA, biotinylated recombinant human CD3 epsilon/delta captured on a streptavidin plate, OD 450 nm
T5 construct: Biotin labeled and captured on a streptavidin coated ELISA plate; also called human recombinant CD3 protein, consisting of CD3 epsilon and CD3 delta chains
T5 sequence (P07766 23-126, stated change not applied, chain 1 of 2): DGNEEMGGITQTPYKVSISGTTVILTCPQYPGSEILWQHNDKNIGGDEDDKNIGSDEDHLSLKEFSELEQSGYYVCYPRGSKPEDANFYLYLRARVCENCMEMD
T5 sequence (P04234 22-105, stated change not applied, chain 2 of 2): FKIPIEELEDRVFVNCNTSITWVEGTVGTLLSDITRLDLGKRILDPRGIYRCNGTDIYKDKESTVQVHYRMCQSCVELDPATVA
Text: Biotin labeled human recombinant CD3 protein, consisting of CD3 epsilon and CD3 delta chains, was bound to a streptavidin coated ELISA plate to capture the antigen on the solid phase.

T4 sequence (Q95LI5 22-117, stated change not applied, chain 1 of 2): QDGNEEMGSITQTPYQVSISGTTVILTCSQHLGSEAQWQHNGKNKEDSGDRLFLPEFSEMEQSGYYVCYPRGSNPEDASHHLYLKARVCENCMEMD
T4 sequence (Q95LI8 22-105, stated change not applied, chain 2 of 2): as the sequence (P04234 22-105, stated change not applied, chain 2 of 2) above, with I5V, N15K, I20V, S32T, D33N, I34N, T64A, S74N, V83L counted along it

B1: SEQ ID NO 29 (VHH)
VHH: DVQLQESGGGSVQAGGSLTLSCTASGWLFRLASMGWYRQAPGKEREMIAVITTGGRTNYKDSVQGRFIITRDNTKSTVTLQMNRLKPEDTAVYYCNTSMPVVGADEWGQGTRVTVSS
notes: VHO single domain; also called CD38 5F21 VHO5
[1]
  binding result: binds

B2: SEQ ID NO 4 (VHH)
VHH: EVQLQESGGGLVQAGHSLRLSCVGSGSRFDNYAMGWFRQAPGKEREFVAAISWSSGTTRYLDTVKGRFTISRDNAKSTVYLQMNSLKPEDTAVYYCAARYQPRYYDSGDMDGYEYDNWGQGTQVTVSS
notes: Variable-heavy-only (VHO) single domain; also called CD38 5FIO VHO1
[2]
  binding result: binds
[3]
  EC50 (read off the curve): ~400 pM
[4]
  binding result: binds

B3: SEQ ID NO 20 (VHH)
VHH: B2 VHH with E1D, S27D, P102N, Y104F
notes: VHO single domain; also called CD38 5FIO VHO5
[5]
  binding result: binds

B4: SEQ ID NO: 4×SP34 v8 (bispecific antibody, V domains shown)
VHH: B2 VHH
VH: EVQLVESGGGLVQPGGSLKLSCAASGFTFNTYAMNWVRQAPGKGLEWVARIRSKYNNYATYYADSVKDRFTISRDDSKNTAYLQMNNLKTEDTAVYYCVRHGNFGNSYVAWFAYWGQGTLVTVSS
VL: QTVVTQEPSLTVSPGGTVTLTCRSSTGAVTTSNYANWVQQKPGQAPRGLIGGTNKRAPGTPARFSGSLLGGKAALTLSGVQPEDEAEYYCALWYSNLWVFGGGTKLTVL
notes: CD38 VHO arm paired with a CD3 arm
[4]
  EC50 (read off the curve): ~100 pM

B5: SEQ ID NOs: 2 and 3 (mAb) (antibody, V domains shown)
VH: QVQLVQSGAEVAKPGTSVKLSCKASGYTFTDYWMQWVKQRPGQGLEWIGTIYPGDGDTGYAQKFQGKATLTADKSSKTVYMHLSSLASEDSAVYYCARGDYYGSNSLDYWGQGTSVTVSS
VL: DIVMTQSHLSMSTSLGDPVSITCKASQDVSTVVAWYQQKPGQSPRRLIYSASYRYIGVPDRFTGSGAGTDFTFTISSVQAEDLAVYYCQQHYSPPYTFGGGTKLEIK
notes: also called CD38 LC1; CD38 HC1
[2]
  binding result: no binding (tested: about 60 nM)

B6: SEQ ID NO 18 (VHH)
VHH: QVTLKESGPVLVKPTETLTLTCTGSGSRFDNYAMGWFRQPPGKEREFLAAISWSSGTTRYSTSLKSRLTISRDTSKSQVVLTMTNMDPVDTATYYCAARYQPRYYDSGDMDGYEYDNWGQGTLVTVSS
notes: VHO single domain; also called CD38 5FIO VHO3
[5]
  binding result: binds

B7: SEQ ID NO 17 (VHH)
VHH: QVQLVQSGAEVKKPGASVKVSCKASGSRFDNYAMGWFRQAPGQEREFMGAISWSSGTTRYAQKVQGRVTMTRDTSTSTVYMELSSLRSEDTAVYYCAARYQPRYYDSGDMDGYEYDNWGQGTLVTVSS
notes: VHO single domain; also called CD38 5FIO VHO2
[5]
  binding result: binds

B8: SEQ ID NO 6 (VHH)
VHH: EVQLQESGGGSVQAGGSLTLSCTASGLLFRLASMGWYRQAPGKERELIATITVGGKTNYKDSVQGRFIITRDNTGDNTKSTVTLQMNRLKPEDTAVYYCNTASPAVGADTWGQGTRVTVSS
notes: also called CD38 5F21 VHO1
[2]
  binding result: no binding (tested: about 60 nM)
[3]
  binding result: no binding (tested: about 30 nM)
[4]
  binding result: binds

B9: SP34 (antibody, V domains shown)
VH: B4 VH with A110S
VL: B4 VL
notes: also called positive control anti-CD3 antibody
[6]
  binding result: binds

B10: SP34 v8 (antibody, V domains shown)
VH: B4 VH
VL: B4 VL
notes: also called SP34 v8 LC; SP34 v8 HC
[7]
  EC50 (read off the curve): ~80 pM
[8]
  binding result: binds

B11: SEQ ID NO 21 (VHH)
VHH: QMQLVQSGAEVKKTGSSVKVSCKGSGRTFRNYPMAWFRQAPGQEREFMGGITWVGASTLYAQKAQDRVTITRDRSMSTAYMELSSLRSEDTAMYSCAAGRGIVAGRIPAEYADWGQGTLVTVSS
notes: VHO single domain; also called CD38 5FIOK VHO2
[5]
  binding result: binds

B12: SEQ ID NO 5 (VHH)
VHH: EVQLQESGGGLVQAGGSLRLSCTGSGRTFRNYPMAWFRQAPGKEREFVAGITWVGASTLYADFAKGRFTISRDNAKNTVYLQMNSLKPEDTAVYSCAAGRGIVAGRIPAEYADWGQGTQVTVSS
notes: also called CD38 5F1K VHO1
[2]
  binding result: no binding (tested: about 60 nM)
[3]
  binding result: binds
[4]
  binding result: binds

B13: SEQ ID NO 24 (VHH)
VHH: B12 VHH with E1D, R30Y, N31L, L59N, V103T
notes: VHO single domain; also called CD38 5FIOK VHO5
[5]
  binding result: binds
